Data on one molecule can be found in patent publication US20100008928A1 (Takeda / Millennium, published 2010).

Substitutions are numbered along the chain they refer to.

The target in test [1] is T1, human nectin-2δ protein (human, UniProt Q92692 32-538).
T1 sequence: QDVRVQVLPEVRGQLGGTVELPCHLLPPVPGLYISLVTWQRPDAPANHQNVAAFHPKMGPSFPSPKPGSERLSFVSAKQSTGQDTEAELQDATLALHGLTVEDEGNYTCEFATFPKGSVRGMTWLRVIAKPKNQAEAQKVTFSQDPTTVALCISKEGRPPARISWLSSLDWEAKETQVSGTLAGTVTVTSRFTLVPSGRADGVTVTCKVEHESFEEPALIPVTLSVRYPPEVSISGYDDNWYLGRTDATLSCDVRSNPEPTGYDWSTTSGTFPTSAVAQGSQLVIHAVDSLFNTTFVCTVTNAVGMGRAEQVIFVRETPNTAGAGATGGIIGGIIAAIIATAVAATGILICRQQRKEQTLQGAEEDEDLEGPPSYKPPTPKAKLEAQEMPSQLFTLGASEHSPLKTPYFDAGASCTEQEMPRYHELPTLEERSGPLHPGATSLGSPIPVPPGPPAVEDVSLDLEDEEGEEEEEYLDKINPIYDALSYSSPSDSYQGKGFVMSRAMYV
Put plainly: Cell ELISA. In general terms: An ELISA detects its analyte on a solid surface through an enzyme-linked reagent.
Protocol: In other words, the CHO cell line (#43-2) stably expressing nectin-2δ and the mock-CHO cell line were incubated in a 96-well tissue culture plate charged with GS-selection DMEM medium supplemented with 10% dialyzed FBS and GS supplement. After the culture supernatant of the plate where each cell line became confluent was removed by aspiration, 200 μL/well of PBS(+) supplemented with 2% FBS was added thereto and incubated on ice in the dark for an hour. After the supernatant of each well was removed by aspiration, 50 μL each/well of the hybridoma culture supernatant was added and reacted on ice in the dark for 2 hours. After this plate was washed once with PBS(+) chilled at 4° C., anti-human IgG (H+L) chain specific (GOAT) peroxidase conjugate (CALBIOCHEM) diluted to 3,000-fold with PBS(+) supplemented with 2% FBS was added by 100 μL each/well and reacted on ice in the dark for 2 hours. […] Absorbance (450 nm) of each well was measured using a plate reader (Multiskan BICHROMATIC; Thermo Electron Co.), and those showing absorbance of 0.5 or more in the nectin-2 expression CHO cell line plate and showing absorbance of less than 0.3 in the mock-CHO cell line plate were judged to be positive wells. […]

Test [2] addresses T2, nectin-2 Ig1 domain-deficient protein (human, UniProt Q92692 32-538).
T2 construct: transient in CHO-K1; also called delta-Ig1; Nectin-2ΔIg1
T2 sequence: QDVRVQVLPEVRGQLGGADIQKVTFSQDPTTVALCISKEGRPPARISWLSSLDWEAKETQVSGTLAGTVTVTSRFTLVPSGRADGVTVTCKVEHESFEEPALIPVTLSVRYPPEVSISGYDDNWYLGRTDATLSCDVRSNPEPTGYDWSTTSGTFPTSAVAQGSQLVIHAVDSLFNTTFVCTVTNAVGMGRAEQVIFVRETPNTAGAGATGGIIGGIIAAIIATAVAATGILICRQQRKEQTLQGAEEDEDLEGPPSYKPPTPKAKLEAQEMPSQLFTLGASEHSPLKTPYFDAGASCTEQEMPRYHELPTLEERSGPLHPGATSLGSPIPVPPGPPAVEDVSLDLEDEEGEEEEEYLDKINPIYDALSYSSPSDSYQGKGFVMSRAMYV
Put plainly: FCM.
Protocol: (§1) After 200 μL of FCM buffer was added to each well and washed once by centrifugal operation, 50 μL each of Alexa488-labeled secondary antibody diluted in FCM buffer to 10 μg/mL was added to and mixed therewith, and the mixture was then reacted on ice for an hour. The Alexa488-labeled secondary antibody used was Alexa Fluor488 goat anti-human IgG (H+L) for the human antibodies and Alexa Fluor488 goat anti-rabbit IgG (H+L) (Invitrogen) for the rabbit antibody. The cells in each well were washed twice with FCM buffer and then resuspended in 250 μL of FCM buffer. Using the flow cytometer MPL500 (BECKMAN COULTER), the fluorescence intensity of stained cells was measured to determine the ratio of the median value of fluorescence intensities of the respective antibodies in the primary antibody group to the median value of fluorescence intensities in the negative control group.

In test [3] the target is T3, nectin-2 Ig2 domain-deficient protein (human, UniProt Q92692 32-538).
T3 construct: transient in CHO-K1; also called delta-Ig2; Nectin-2ΔIg2
T3 sequence: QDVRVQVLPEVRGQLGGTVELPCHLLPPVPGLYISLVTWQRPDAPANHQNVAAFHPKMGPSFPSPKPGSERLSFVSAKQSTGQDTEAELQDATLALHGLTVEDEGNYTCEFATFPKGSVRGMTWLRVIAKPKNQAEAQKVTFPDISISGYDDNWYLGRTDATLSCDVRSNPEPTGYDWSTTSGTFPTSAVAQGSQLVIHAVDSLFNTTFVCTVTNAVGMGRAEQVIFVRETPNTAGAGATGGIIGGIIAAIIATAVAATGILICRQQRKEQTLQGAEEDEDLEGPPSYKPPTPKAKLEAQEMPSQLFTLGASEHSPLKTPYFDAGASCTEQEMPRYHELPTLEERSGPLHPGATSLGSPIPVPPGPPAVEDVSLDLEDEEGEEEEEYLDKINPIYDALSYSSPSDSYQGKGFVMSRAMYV
Kind of test: FCM.
Protocol: as §1

Test [4] concerns the target T4, human nectin-2δ AN77-78PD (human, UniProt Q92692 32-538).
T4 construct: transient in CHO-K1; also called Nectin-2 (AN77-78PD)
T4 sequence: T1 sequence with A46P, N47D
Kind of test: FCM.
Protocol: (§2) Then, after 200 μL of FCM buffer was added to each well and washed once by centrifugal operation, 50 μL of Alexa Fluor488 goat anti-human IgG (H+L) diluted in FCM buffer to 10 μg/mL was added thereto for suspension, and the mixture was then reacted on ice for an hour. Next, the cells were washed twice with FCM buffer and resuspended in 250 μL of FCM buffer. Using flow cytometer MPL500 (BECKMAN COULTER), the fluorescence intensities of stained cells were measured, respectively.

The target of another test is T5, human nectin-2δ H128R (human, UniProt Q92692 32-538).
T5 construct: transient in CHO-K1; also called Nectin-2 (H128R)
T5 sequence: T1 sequence with H97R
Put plainly: FCM.

A further test addresses T6, human nectin-2δ G113R (human, UniProt Q92692 32-538).
T6 construct: transient in CHO-K1; also called Nectin-2 (G113R)
T6 sequence: T1 sequence with G82R
Put plainly: FCM.

The target in test [5] is T1, human nectin-2δ protein. Put plainly: FCM.
Protocol: (§3) Then, after 200 μL of FCM buffer was added to each well and washed once by centrifugal operation, 50 μL each of Alexa488-labeled secondary antibody diluted in FCM buffer to 10 μg/mL was added thereto for suspension, and the mixture was then reacted on ice for an hour. As secondary antibodies, Alexa Fluor488 goat anti-human IgG (H+L) was used for the human antibodies and Alexa Fluor488 goat anti-rabbit IgG (H+L) (Invitrogen) was used for the rabbit antibody, respectively. Next, the cells were washed twice with FCM buffer and then resuspended in 250 μL of FCM buffer.
The target in test [6] is T7, cynomolgus monkey nectin-2 protein (cynomolgus monkey, UniProt Q92692 32-538 (human entry)).
T7 construct: transient in CHO-K1; also called maNectin-2
T7 chain: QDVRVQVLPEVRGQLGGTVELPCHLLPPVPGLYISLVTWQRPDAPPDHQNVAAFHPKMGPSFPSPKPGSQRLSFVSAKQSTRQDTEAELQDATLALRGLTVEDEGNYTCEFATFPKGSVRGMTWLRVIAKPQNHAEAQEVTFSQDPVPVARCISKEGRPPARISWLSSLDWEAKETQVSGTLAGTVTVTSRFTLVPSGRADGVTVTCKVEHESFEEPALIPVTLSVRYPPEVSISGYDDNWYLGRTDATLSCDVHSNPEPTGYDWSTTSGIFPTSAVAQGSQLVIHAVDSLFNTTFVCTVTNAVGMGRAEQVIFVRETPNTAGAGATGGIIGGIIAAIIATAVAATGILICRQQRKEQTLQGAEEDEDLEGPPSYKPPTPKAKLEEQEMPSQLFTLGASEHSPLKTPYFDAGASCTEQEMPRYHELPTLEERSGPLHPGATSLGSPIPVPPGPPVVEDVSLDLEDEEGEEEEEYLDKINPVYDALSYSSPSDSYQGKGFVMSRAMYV
Put plainly: FCM.
Protocol: as §3

Protocol for human nectin-2δ G113R: as §2
Protocol for human nectin-2δ H128R: as §2

B1: Nec1-554-1 (antibody, human IgG1, V domains shown)
VH: EVQLVESGGGLVKPGGSLRLSCAASGFTFSSYNMNWVRQAPGKGLEWVSSISSSSSYIYYADSVKGRFTISRDNAKNSLYLQMNSLRAEDTAVYYCARDYYGSGTYYLFDYWGQGTLVTVSS
VL: EIVLTQSPDFQSVTPKEKVTITCRASQSIGSSLHWYQQKPDQSPKLLIKYASQSFSGVPSRFSGSGSGTDFTLTINSLEAEDAAAYYCHQSRSLPITFGQGTRLEIK
notes: human IgG1/k from hybridoma FERM BP-10681
For B1, the EC50 (as a rule, the midpoint of the concentration-response curve) with human nectin-2δ protein [1] was 1.11 nM. Besides, the median fluorescence ratio in test [2] turned out to be 3.6; in test [4], 44.2; in the test with human nectin-2δ H128R it was 51.5; in the test with human nectin-2δ G113R it was 38.7; in the test with human nectin-2δ protein [5] it was 43; in test [6], 14.8. Moreover, the binding result in test [3] was “no binding (tested: ratio <2 = no reactivity; 6 µg/mL)”.
